Results: patent US5444153, “Variants of PAI-2” (Biotech Australia Pty Limited, dated 1995)
Substitutions are numbered along the chain they refer to.

B1: PAI-2 deletion variant Δ74-96 (as expressed from pBTA829) (other)
chain: MEDLCVANTLFALNLFKHLAKASPTQNLFLSPWSISSTMAMVYMGSRGSTEDQMAKVLQFNEVGANAVTPMTPAQAADKIHSSFRSLSSAINASTGNYLLESVNKLFGEKSASFREEYIRLCQKYYSSEPQAVDFLECAEEARKKINSWVKTQTKGKIPNLLPEGSVDGDTRMVLVNAVYFKGKWKTPFEKKLNGLYPFRVNSAQRTPVQMMYLREKLNIGYIEDLKAQILELPYAGDVSMFLLLPDEIADVSTGLELLESEITYDKLNKWTSKDKMAEDEVEVYIPQFKLEEHYELRSILRSMGMEDAFNKGRANFSGMSERNDLFLSEVFHQAMVDVNEEGTEAAAGTGGVMTGRTGHGGPQFVADHPFLFLIMHKITNCILFFGRFSSP
B2: native PAI-2 (as expressed from pBTA641) (other)
chain: MEDLCVANTLFALNLFKHLAKASPTQNLFLSPWSISSTMAMVYMGSRGSTEDQMAKVLQFNEVGANAVTPMTPENFTSCGFMQQIQKGSYPDAILQAQAADKIHSSFRSLSSAINASTGNYLLESVNKLFGEKSASFREEYIRLCQKYYSSEPQAVDFLECAEEARKKINSWVKTQTKGKIPNLLPEGSVDGDTRMVLVNAVYFKGKWKTPFEKKLNGLYPFRVNSAQRTPVQMMYLREKLNIGYIEDLKAQILELPYAGDVSMFLLLPDEIADVSTGLELLESEITYDKLNKWTSKDKMAEDEVEVYIPQFKLEEHYELRSILRSMGMEDAFNKGRANFSGMSERNDLFLSEVFHQAMVDVNEEGTEAAAGTGGVMTGRTGHGGPQFVADHPFLFLIMHKITNCILFFGRFSSP
B3: second form of native PAI-2 (alternative native PAI-2, expressed from pBTA 683) (other)
chain: B2 chain with N120D, N404K, S413C

Assays:
Assay in all cases: incubation of the purified proteins; SDS-PAGE and western blot with anti-PAI-2
[1] = biological target: two chain t-PA (American Diagnostica) (Homo sapiens (Human), UniProt P00750)
u-PA (Behring) = u-PA (Behring) (Homo sapiens (Human), UniProt P00749)
[2] = biological target: single chain t-PA (American Diagnostica) (Homo sapiens (Human), UniProt P00750)

Row | Binder | binding result [1] | binding result (u-PA (Behring)) | binding result [2]
1 | B1 | binds | binds | binds
2 | B2 | binds |  | binds
3 | B3 | binds |  | binds
